# Measured values: PMC6041257
# B1: GLI1 (transfected, wild type) [human] / SUFU (transfected, HEK293T) [not stated] (parent)
# chain 1: MFNSMTPPPISSYGEPCCLRPLPSQGAPSVGTEGLSGPPFCHQANLMSGPHSYGPARETNSCTEGPLFSSPRSAVKLTKKRALSISPLSDASLDLQTVIRTSPSSLVAFINSRCTSPGGSYGHLSIGTMSPSLGFPAQMNHQKGPSPSFGVQPCGPHDSARGGMIPHPQSRGPFPTCQLKSELDMLVGKCREEPLEGDMSSPNSTGIQDPLLGMLDGREDLEREEKREPESVYETDCRWDGCSQEFDSQEQLVHHINSEHIHGERKEFVCHWGGCSRELRPFKAQYMLVVHMRRHTGEKPHKCTFEGCRKSYSRLENLKTHLRSHTGEKPYMCEHEGCSKAFSNASDRAKHQNRTHSNEKPYVCKLPGCTKRYTDPSSLRKHVKTVHGPDAHVTKRHRGDGPLPRAPSISTVEPKREREGGPIREESRLTVPEGAMKPQPSPGAQSSCSSDHSPAGSAANTDSGVEMTGNAGGSTEDLSSLDEGPCIAGTGLSTLRRLENLRLDQLHQLRPIGTRGLKLPSLSHTGTTVSRRVGPPVSLERRSSSSSSISSAYTVSRRSSLASPFPPGSPPENGASSLPGLMPAQHYLLRARYASARGGGTSPTAASSLDRIGGLPMPPWRSRAEYPGYNPNAGVTRRASDPAQAADRPAPARVQRFKSLGCVHTPPTVAGGGQNFDPYLPTSVYSPQPPSITENAAMDARGLQEEPEVGTSMVGSGLNPYMDFPPTDTLGYGGPEGAAAEPYGARGPGSLPLGPGPPTNYGPNPCPQQASYPDPTQETWGEFPSHSGLYPGPKALGGTYSQCPRLEHYGQVQVKPEQGCPVGSDSTGLAPCLNAHPSEGPPHPQPLFSHYPQPSPPQYLQSGPYTQPPPDYLPSEPRPCLDFDSPTHSTGQLKAQLVCNYVQSQQELLWEGGGREDAPAQEPSYQSPKFLGGSQVSPSRAKAPVNTYGPGFGPNLPNHKSGSYPTPSPCHENFVVGANRASHRAAAPPRLLPPLPTCYGPLKVGGTNPSCGHPEVGRLGGGPALYPPPEGQVCNPLDSLDLDNTQLDFVAILDEPQGLSPPPSHDQRGSSGHTPPPSGPPNMAVGNMSVLLRSLPGETEFLNSSA
# chain 2: MAELRPSGAPGPTAPPAPGPTAPPAFASLFPPGLHAIYGECRRLYPDQPNPLQVTAIVKYWLGGPDPLDYVSMYRNVGSPSANIPEHWHYISFGLSDLYGDNRVHEFTGTDGPSGFGFELTFRLKRETGESAPPTWPAELMQGLARYVFQSENTFCSGDHVSWHSPLDNSESRIQHMLLTEDPQMQPVQTPFGVVTFLQIVGVCTEELHSAQQWNGQGILELLRTVPIAGGPWLITDMRRGETIFEIDPHLQERVDKGIETDGSNLSGVSAKCAWDDLSRPPEDDEDSRSICIGTQPRRLSGKDTEQIRETLRRGLEINSKPVLPPINPQRQNGLAHDRAPSRKDSLESDSSTAIIPHELIRTRQLESVHLKFNQESGALIPLCLRGRLLHGRHFTYKSITGDMAITFVSTGVEGAFATEEHPYAAHGPWLQILLTEEFVEKMLEDLEDLTSPEEFKLPKEYSWPEKKLKVSILPDVVFDSPLH
# Variants of: B1
# Assay: co-immunoprecipitation (IP: HA (SUFU-HA), IB: Flag (GLI1-Flag))
# Details: with SUFU (transfected, HEK293T); HEK293T cells; SUFU-HA + GLI1-Flag + MEKK3-Flag co-expressed; parent: 3
row,Variant,screen value
1,chain 1 S201D S204D S243D S968D T1074D S1078D,3.9

# Same assay, conditions: with SUFU (transfected, HEK293T); HEK293T cells; SUFU-HA + GLI1-Flag + Vector (no MEKK3); parent: 1
row,Variant,ratio to parent
1,chain 1 S201D S204D S243D S968D T1074D S1078D,3
